Patent US20210069342A1 (LEGOCHEM BIOSCIENCES, published 2021)

What was measured:
[1] = target: T1, recombinant human ROR1-His (Sino Biological, 13968-H08H) (human, UniProt Q01973 30-406); assay: BLI (Octet), ROR1-His on Anti-Penta-His or AR2G biosensor, IgG 30 to 0.021 nM, 1:1 fit
T1 construct: extracellular domain; Bought protein; also called ROR1-HIS protein; not shown: His tag
Experimental: A 96-well black microplate (greiner bio one) was mounted on a biosensor tray case, and 200 10×KB or DW was added to each of 8 wells. Then Anti Penta His biosensors or 8 AR2G biosensors (ForteBio, USA) were inserted to hydrate for 10 minutes. 600 of the assay samples were diluted 2-fold or 3-fold to the appropriate assay concentrations, using 1×KB or 10×KB to 30 to 0.021 nM. To immobilize the antigen, recombinant human ROR1-His (Sino Biological, 13968-H08H) was diluted to 1 /ML with 10×KB or Sodium Acetate pH5 buffer. Immobilization was fixed at a threshold of 0.3 nm in the loading step. The association assay was carried out for 3 to 10 minutes, and the dissociation assay was carried out for 20 minutes. According to the Octet program template, the buffer was placed in a new 96-well black microplate according to order. As Baseline1, 200 10×KB or DW was placed. Then 200 each of 1 /mL of the antigen to be loaded, the ROR1-HIS protein, was added. As Baseline2, 200 10×KB or 1×KB was placed. Then to each well 30 to 0.021 nM of the diluted antibody and 200 each of 10×KB buffer or 1×KB corresponding to a reference blank was added. The temperature of the test plate was fixed at 30° C. After all of the samples were introduced, the equipment was started, and after the assay was completed, results were uploaded to the Octet Analysis 90 software, with KD values analyzed through 1:1 fitting. By obtaining KD values through the Octet assay method, it was confirmed that the anti-ROR1 antibody had strong binding potential to ROR1 antigen.

[2] = target: T2, recombinant mouse ROR1 protein (Acrobiosystems, RO1-M5221) (mouse, UniProt Q9Z139 30-403); assay: ELISA, wells coated with recombinant mouse ROR1 protein, IgG titrated, HRP anti-Fab detection, OD (450-650nm)
T2 construct: Bought protein; also called mouse ROR1 antigen
T2 sequence (Q9Z139 30-403 limits assumed): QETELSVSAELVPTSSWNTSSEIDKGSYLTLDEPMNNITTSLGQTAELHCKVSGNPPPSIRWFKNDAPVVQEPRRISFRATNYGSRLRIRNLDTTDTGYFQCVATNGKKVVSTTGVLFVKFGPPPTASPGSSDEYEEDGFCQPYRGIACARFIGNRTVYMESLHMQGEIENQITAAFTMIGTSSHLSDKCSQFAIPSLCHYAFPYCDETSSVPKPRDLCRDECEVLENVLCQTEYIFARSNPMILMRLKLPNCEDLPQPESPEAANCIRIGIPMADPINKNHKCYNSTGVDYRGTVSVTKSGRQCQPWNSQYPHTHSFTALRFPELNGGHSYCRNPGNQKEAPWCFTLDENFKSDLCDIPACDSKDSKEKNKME
Experimental: (§1) Anti-ROR1 antibody antigen binding affinity was assessed using an ELISA-based solution binding assay. Specifically, a 96-well microtiter plate (Nunc-Immuno Plates), NUNC) was coated for 16 hours at 4° C. with the ROR1 protein described below at a concentration of 1 in PBS solution, and non-specific binding sites were blocked for 2 hours with 3% BSA (bovine serum albumin). Here, the ROR1 protein used was, in the case of human ROR1, the ROR1-Fc or recombinant human ROR1-His (Sino Biological, 13968-H08H) of Embodiment 1. The ROR1-His used in ELISA, as stated in the above sentence, was a protein from the Sino Biological company (13968-H08H), and the ROR1-His of Embodiment 1 or recombinant mouse ROR1 protein was used (Acrobiosystems, RO1-M5221-100 )
(§2) Subsequently, the anti-ROR1 antibodies prepared in Embodiment 3 were added at the concentrations stated in FIG. 2 to a 96-well microtiter plate, and binding capacity was analyzed using ELISA as follows. Specifically, after incubating for 2 hours, the plate was washed 5 times with PBS containing 0.05% Tween 20, then HRP-conjugated Fab multiclonal antibody reagent (Perce, 31414) was diluted to 1:10,000 and placed in the washed microtiter plate. After reacting for 1 hour at 37° C., the ROR1 antibodies bonded to the plate were detected. After the reaction, color development was performed using TMB (Tetramethylbenzidine, Sigma, T0440). The enzymatic reaction was stopped using 0.5 mol/L sulfuric acid, and absorbance at 450 nm and 650 nm was measured (450 nm-650 nm) using a micro plate reader (Molecular Device)

[3] = target: T3, human ROR2 over-expressed on CHO cells (CHO-human ROR2) (human, UniProt Q01974 34-943); assay: flow cytometry on CHO-S cells transiently over-expressing human ROR2, FITC anti-human Fc detection, MFI ratio to 2nd Ab alone
T3 construct: whole, on cells; Negative control; also called family protein human ROR2
T3 sequence (Q01974 34-943): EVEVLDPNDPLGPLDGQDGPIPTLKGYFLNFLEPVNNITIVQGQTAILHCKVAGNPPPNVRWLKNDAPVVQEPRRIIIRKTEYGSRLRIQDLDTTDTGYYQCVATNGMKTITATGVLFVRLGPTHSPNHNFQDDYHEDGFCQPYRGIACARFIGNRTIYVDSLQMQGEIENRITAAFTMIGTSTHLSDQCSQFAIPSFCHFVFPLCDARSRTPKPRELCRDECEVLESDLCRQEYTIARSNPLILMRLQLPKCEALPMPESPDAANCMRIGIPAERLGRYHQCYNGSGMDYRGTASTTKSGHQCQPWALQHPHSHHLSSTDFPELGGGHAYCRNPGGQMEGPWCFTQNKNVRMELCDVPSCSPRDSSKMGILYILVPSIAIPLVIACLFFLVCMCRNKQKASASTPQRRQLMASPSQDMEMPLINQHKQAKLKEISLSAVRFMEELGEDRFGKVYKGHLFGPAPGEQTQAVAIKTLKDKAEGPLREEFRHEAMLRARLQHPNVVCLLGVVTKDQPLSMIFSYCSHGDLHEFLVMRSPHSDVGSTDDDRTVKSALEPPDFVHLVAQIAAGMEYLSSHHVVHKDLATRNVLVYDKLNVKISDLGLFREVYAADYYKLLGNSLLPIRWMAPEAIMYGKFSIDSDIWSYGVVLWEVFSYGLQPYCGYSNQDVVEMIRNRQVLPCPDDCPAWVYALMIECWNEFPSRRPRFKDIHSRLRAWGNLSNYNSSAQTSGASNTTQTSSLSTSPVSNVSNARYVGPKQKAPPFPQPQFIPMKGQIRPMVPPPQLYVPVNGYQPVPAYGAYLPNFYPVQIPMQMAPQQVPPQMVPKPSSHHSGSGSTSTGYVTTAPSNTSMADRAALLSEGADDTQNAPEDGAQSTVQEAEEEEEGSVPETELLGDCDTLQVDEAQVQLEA
Description: (§3) For this experiment, using cell lines (FIG. 5 and FIG. 7, respectively) transiently (CHO-human ROR1, CHO-human ROR2, CHO-mouse ROR1) or stably (MC38-human ROR1) transfected with ROR1 gene to achieve artificial over-expression of ROR1 protein, an ROR1-expressing cell line (JeKo-1, Mino) (FIG. 6), a non ROR1-expressing cell line (MCF7) (FIG. 6) and a FACSCalibur (BD Biosciences) device was used to measure the degree to which anti-ROR1 antibody and ROR1 were bound, as follows. […] JeKo-1, Mino, CHO-human ROR1, CHO-mouse ROR1 and MC38-human ROR1 are all cell lines which express human ROR1 or mouse ROR1.
(§4) Specifically, after dissociating each cell line and washing in PBS, the number of cells was counted and adjusted to 2×10⁵ cells/200 PBS. Then the respective ROR1 monoclonal antibodies prepared in Embodiment 3 were diluted 5 times from 10 /mL or 10 /mL, then reacted for 1 hour at 4° C. After the reaction, the cells were washed in PBS, then FITC-marked constant region (Fc) specific antibody (Goat anti-human IgG FITC conjugate, Fc specific, Sigma, F9512, concentration 20 mg/ml) was suspended in 2 /1×10⁵ cells/200 PBS and reacted for 1 hour at 4° C. As for identification of the degree of expression of the transiently over-expressed human ROR1, human ROR2 and mouse ROR1, a commercially available FACS analysis antibody (anti-ROR1: R&D Systems, FAB 2000G, anti-ROR2: R&D, FAB20641P) was used. After reacting the cells were washed in PBS and analyzed using a FACSCalibur device. The negative control (2nd Ab) was only treated with FITC-marked constant region (Fc) specific antibody. The shifted readings for the respective experimental groups treated with ROR1 monoclonal antibody were compared against the shifted reading for the control group (MFI Ratio: MFI of anti-ROR1/MFI of 2nd Ab).

[4] = target: T4, mouse ROR1 over-expressed on CHO cells (CHO-mouse ROR1) (mouse, UniProt Q9Z139 30-937); assay: flow cytometry on CHO-S cells transiently over-expressing mouse ROR1, FITC anti-human Fc detection, MFI ratio to 2nd Ab alone
T4 construct: whole, on cells; also called cell surface-expressed mouse ROR1
T4 sequence (Q9Z139 30-937): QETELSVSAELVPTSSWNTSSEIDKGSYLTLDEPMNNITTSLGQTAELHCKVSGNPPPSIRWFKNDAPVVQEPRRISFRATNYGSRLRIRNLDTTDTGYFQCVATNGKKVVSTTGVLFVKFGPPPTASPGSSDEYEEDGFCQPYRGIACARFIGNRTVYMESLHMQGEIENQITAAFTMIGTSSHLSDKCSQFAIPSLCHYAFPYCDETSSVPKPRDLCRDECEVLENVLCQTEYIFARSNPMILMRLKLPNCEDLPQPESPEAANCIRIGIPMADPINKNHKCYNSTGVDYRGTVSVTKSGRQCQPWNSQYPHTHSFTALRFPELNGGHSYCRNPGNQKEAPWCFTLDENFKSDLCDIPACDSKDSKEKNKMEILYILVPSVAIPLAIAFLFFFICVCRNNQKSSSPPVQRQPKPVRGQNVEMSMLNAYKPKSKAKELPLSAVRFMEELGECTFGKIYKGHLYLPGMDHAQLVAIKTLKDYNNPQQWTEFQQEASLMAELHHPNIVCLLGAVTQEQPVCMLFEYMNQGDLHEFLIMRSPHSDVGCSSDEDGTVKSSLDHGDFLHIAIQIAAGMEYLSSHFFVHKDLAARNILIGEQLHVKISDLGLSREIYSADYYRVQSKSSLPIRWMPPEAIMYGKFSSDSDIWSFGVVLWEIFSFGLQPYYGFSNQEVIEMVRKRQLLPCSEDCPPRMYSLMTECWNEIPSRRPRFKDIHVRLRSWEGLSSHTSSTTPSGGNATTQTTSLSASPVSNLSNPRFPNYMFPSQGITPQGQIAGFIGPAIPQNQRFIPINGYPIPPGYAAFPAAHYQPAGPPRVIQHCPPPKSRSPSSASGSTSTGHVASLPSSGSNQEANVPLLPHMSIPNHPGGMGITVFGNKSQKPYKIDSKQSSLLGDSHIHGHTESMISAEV
Description: as §3
(§5) Specifically, after dissociating each cell line and washing in PBS, the number of cells was counted and adjusted to 2×10⁵ cells/200 PBS. Then the respective ROR1 monoclonal antibodies prepared in Embodiment 3 were diluted 5 times from 10 /mL or 10 /mL, then reacted for 1 hour at 4° C. […] After reacting the cells were washed in PBS and analyzed using a FACSCalibur device. […] The shifted readings for the respective experimental groups treated with ROR1 monoclonal antibody were compared against the shifted reading for the control group (MFI Ratio: MFI of anti-ROR1/MFI of 2nd Ab).

[5] = target: T1, recombinant human ROR1-His (Sino …); assay: ELISA, wells coated with human ROR1 protein (sheet: 'human ROR1'; text: ROR1-Fc or ROR1-His), IgG titrated, HRP anti-Fab detection, OD (450-650nm)
Experimental: as §1, §2

[6] = target: T5, human ROR1 expressed on the cell surface (human, UniProt Q01973 30-937); assay: flow cytometry on MC38-human ROR1 cells, IgG titrated, FITC anti-human Fc detection, MFI ratio to 2nd Ab alone; log axis whose first tick is printed 0
T5 construct: whole, on cells; also called cell surface-expressed ROR1 antigen; ROR1 on JeKo-1, Mino, CHO-human ROR1, MC38-human ROR1 and other cancer cell lines
T5 sequence (Q01973 30-937): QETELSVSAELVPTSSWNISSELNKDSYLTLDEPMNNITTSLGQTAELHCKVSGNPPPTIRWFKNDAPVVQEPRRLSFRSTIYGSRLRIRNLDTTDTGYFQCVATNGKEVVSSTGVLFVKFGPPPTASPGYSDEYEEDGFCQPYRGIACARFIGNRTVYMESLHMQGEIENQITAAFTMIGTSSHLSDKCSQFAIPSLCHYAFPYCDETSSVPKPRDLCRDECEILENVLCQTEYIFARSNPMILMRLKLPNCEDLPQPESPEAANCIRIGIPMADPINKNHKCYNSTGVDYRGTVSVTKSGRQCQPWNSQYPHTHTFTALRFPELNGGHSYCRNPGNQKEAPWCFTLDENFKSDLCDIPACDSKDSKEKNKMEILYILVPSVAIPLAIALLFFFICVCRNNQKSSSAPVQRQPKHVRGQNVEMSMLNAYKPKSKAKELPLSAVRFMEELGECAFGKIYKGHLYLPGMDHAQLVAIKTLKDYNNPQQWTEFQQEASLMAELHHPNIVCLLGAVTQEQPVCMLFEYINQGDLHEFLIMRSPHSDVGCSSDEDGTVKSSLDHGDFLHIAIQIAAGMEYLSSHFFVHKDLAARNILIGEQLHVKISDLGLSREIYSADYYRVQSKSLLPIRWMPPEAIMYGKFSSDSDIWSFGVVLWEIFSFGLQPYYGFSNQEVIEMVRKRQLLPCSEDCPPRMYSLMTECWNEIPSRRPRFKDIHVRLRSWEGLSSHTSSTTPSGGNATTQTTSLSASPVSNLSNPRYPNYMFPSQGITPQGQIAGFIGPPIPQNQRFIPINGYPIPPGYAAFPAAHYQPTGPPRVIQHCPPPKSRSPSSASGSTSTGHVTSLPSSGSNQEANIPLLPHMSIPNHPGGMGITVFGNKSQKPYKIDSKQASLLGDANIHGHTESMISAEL
Description: as §3, §4

[7] = target: T1, recombinant human ROR1-His (Sino …); assay: ELISA, wells coated with human ROR1 protein (sheet: 'human ROR1'; text: ROR1-Fc or ROR1-His), IgG titrated, OD(450nm-650nm); x axis 'conc(nM)' numbered -5 to 2 (log10)
Experimental: as §1, §2

[8] = target: T3, human ROR2 over-expressed on CHO cells …; assay: flow cytometry, CHO-human ROR2 cells
Description: as §3, §5

[9] = target: T4, mouse ROR1 over-expressed on CHO cells …; assay: flow cytometry, CHO-mouse ROR1 cells
Description: as §3, §4

T1 sequence (Q01973 30-406): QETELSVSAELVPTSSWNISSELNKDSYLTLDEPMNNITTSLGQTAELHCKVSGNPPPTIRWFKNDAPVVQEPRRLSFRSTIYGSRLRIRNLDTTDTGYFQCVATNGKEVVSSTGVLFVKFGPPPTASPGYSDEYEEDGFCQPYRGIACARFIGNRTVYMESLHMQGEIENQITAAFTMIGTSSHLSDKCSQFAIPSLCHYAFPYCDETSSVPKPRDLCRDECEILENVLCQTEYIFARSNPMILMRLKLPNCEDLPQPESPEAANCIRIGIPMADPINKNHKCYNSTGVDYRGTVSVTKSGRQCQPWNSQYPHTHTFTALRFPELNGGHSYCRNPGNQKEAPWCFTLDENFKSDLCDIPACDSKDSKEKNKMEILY

Row | Kd [1] [nM] | koff [1] [s⁻¹] | kon [1] [M⁻¹ s⁻¹] | binding result [2] | binding result [3] | binding result [4] | EC50 (read off the curve) [5] [nM] | EC50 (read off the curve) [6] [µg/mL] | EC50 (read off the curve) [7] [nM] | binding result [8] | binding result [9] | Binder
1 | 0.0937 | 0.000231 | 2.47e+06 | binds | no binding | binds | ~0.2 | ~0.1 | ~0.05 | – | – | anti-ROR1 IgG antibody BA6 (antibody, V domains shown, Full IgG form (human IgG1 constant region, lambda light chain), expressed in CHO-S cells) VH: EVQLLESGGGLVQPGGSLRLSCAASGFTFSNYDMSWVRQAPGKGLEWVSAIYHSGSSKYYADSVKGRFTISRDNSKNTLYLQMNSLRAEDTAVYYCARGGNGAWDTGFDYWGQGTLVTVSS VL: QSVLTQPPSASGTPGQRVTISCSGSSSNIGSNDVSWYQQLPGTAPKLLIYYDNNRPSGVPDRFSGSKSGTSASLAISGLRSEDEADYYCGAWDDSLSGYVFGGGTKLTVLG
2 | 0.754 | 0.000551 | 731000 | binds | – | – | ~0.3 | – | – | no binding | binds | anti-ROR1 IgG antibody CC9 (antibody, V domains shown, Full IgG form (human IgG1 constant region, lambda light chain), expressed in CHO-S cells) VH: EVQLLESGGGLVQPGGSLRLSCAASGFTFSSYDMSWVRQAPGKGLEWVSGISHGSGNKYYADSVKGRFTISRDNSKNTLYLQMNSLRAEDTAVYYCAKRLSLRRRPSYYSDNAMDVWGQGTLVTVSS VL: QSVLTQPPSASGTPGQRVTISCTGSSSNIGNNAVNWYQQLPGTAPKLLIYYDSNRPSGVPDRFSGSKSGTSASLAISGLRSEDEADYYCGAWDDSLSGYVFGGGTKLTVLG
